Assay results: patent publication US20160074488A1 (UNIVERSITY OF CHICAGO, published 2016)

B3: Q11 β-sheet fibrillizing peptide (assembled as Q11 nanofibers, gels or microgels) (peptide)
peptide: QQKFQFQFEQQ
notes: Synthetic peptide; stands in the assays as a supramolecular nanofiber of many copies; also called Q11 gels; Q11 microgels

Columns and labels:
[1] = target: B3; test: loss of tryptophan fluorescence from the supernatant
[2] = target: B3; test: circular dichroism
[3] = target: the molecule itself; test: circular dichroism (FIGS. 1B-C)
[4] = target: gold-labeled streptavidin (streptavidin-5 nm gold particles, Invitrogen cat. # A32360) (UniProt P22629 37-163, limits assumed, bound to 5 nm gold particles); test: gold TEM
[5] = target: T1, βTail-cutinase (fusion of βTail and the fungal enzyme cutinase); test: loss of protein from the supernatant (µBCA)
T1 construct: also called βT-cut

[6] = target: the molecule itself; test: TEM and thioflavin T fluorescence

Chain of gold-labeled streptavidin (streptavidin-5 nm gold particles, Invitrogen cat. # A32360) (P22629 37-163 limits assumed, one chain of several): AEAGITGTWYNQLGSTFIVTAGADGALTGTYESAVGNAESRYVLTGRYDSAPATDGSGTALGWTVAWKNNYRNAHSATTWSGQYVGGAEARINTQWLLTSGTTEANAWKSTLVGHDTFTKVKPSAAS

B1: Tryptophan-terminated βTail (peptide)
peptide: WGSGSMALKVELEKLKSELVVLHSELHKLKSEL
notes: Synthetic peptide; also called W-βTail; W-βT
- binding result [1]: binds

B2: βTail peptide (peptide)
peptide: MALKVELEKLKSELVVLHSELHKLKSEL
- binding result [2]: binds
- binding result [3]: binds

Binder: B3
- binding result [4]: no binding
- binding result [3]: binds
- binding result [5]: binds

B4: HK-Q11 β-sheet fibrillizing peptide (nanofibers) (peptide)
peptide: QQKFQFQFHQQ
notes: Synthetic peptide assembled into nanofibers
- binding result [6]: binds
